Data set [1] can be described thus: Western blot, HEK293T. Conditions: glycan lost; control: B3GNT5-WT-Flag. (Immunoblotting shows a protein as a band on a membrane.)
Data set [2] can be described thus: Western blot, MDA-MB231 and BT549, B3GNT5-WT-mcherry. Conditions: glycan lost; control: untreated.

B1: B3GNT5 (β1,3-N-acetylglucosaminyltransferase V): 4NQ (protein)
parent chain: MRMLVSGRRVKKWQLIIQLFATCFLASLMFFWEPIDNHIVSHMKSYSYRYLINSYDFVNDTLSLKHTSAGPRYQYLINHKEKCQAQDVLLLLFVKTAPENYDRRSGIRRTWGNENYVRSQLNANIKTLFALGTPNPLEGEELQRKLAWEDQRYNDIIQQDFVDSFYNLTLKLLMQFSWANTYCPHAKFLMTADDDIFIHMPNLIEYLQSLEQIGVQDFWIGRVHRGAPPIRDKSSKYYVSYEMYQWPAYPDYTAGAAYVISGDVAAKVYEASQTLNSSLYIDDVFMGLCANKIGIVPQDHVFFSGEGKTPYHPCIYEKMMTSHGHLEDLQDLWKNATDPKVKTISKGFFGQIYCRLMKIILLCKISYVDTYPCRAAFI
For B1, the expression_or_secretion result in data set [1] was “decreases”.

B2: B3GNT5 (β1,3-N-acetylglucosaminyltransferase V): tunicamycin (TM, 2.5 μg/mL, 24 h) (protein)
parent chain: B1 parent chain
As for B2, in data set [2], the expression_or_secretion result was “decreases”.

These data come from publication PMC9077843.
